pKd: −log10 of the molar value.

The source of these data is paper PMC10703496.

Assay [1] has as its target 6×His-tagged receptor-binding domain (RBD) of SARS-CoV-2 spike, Wuhan (SARS-CoV-2) (UniProt P0DTC2). In words: SPR. For orientation: In SPR one partner is held on a chip, and binding of the other changes the refractive index at the surface.
The target in assay [2] is spike protein of live Wuhan SARS-CoV-2 (SARS-CoV-2) (UniProt P0DTC2).
The target of assay [3] is dimeric ACE2-albumin fusion: truncated human ACE2 (residues 18–740) fused to engineered human albumi (human) (UniProt Q9BYF1). Kind of assay: SEC. For orientation: Size exclusion chromatography separates by hydrodynamic size, large species first.
Assay [4] concerns the target soluble His-tagged human neonatal Fc receptor (human) (UniProt P55899).
For assay [5], the target named is dimeric ACE2-albumin fusion: truncated human ACE2 (residues 18–740) fused to full-length wild-type human albumin (human) (UniProt Q9BYF1). In words: SEC.
Assay [6] concerns the target ACE2(18–740)-WT: truncated dimeric human ACE2 (residues 18–740) fused to the N-terminal end of full- (human) (UniProt Q9BYF1). In words: SPR; pH 5.5.
The target is the same in assay [7]. In words: SPR.

Chain of soluble His-tagged human neonatal Fc receptor (human FcRn-His) (P55899 24-297): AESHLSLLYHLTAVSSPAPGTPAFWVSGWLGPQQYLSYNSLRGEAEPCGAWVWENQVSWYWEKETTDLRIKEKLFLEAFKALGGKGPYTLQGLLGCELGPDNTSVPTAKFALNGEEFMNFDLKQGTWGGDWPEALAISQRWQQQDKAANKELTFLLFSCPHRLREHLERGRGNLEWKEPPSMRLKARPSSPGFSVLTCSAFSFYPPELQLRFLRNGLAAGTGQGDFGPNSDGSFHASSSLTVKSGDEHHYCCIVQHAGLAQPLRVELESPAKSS
Chain of soluble His-tagged human neonatal Fc receptor (human FcRn-His) (P61769 21-119): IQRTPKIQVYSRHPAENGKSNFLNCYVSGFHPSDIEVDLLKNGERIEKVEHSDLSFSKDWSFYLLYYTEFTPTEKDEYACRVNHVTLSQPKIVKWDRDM
Chain of soluble His-tagged human neonatal Fc receptor (human) (P55899 24-297, chain 1 of 2): as the sequence (P55899 24-297) above
Chain of soluble His-tagged human neonatal Fc receptor (human) (P61769 21-119, chain 2 of 2, further chain): as the sequence (P61769 21-119) above

“ACE2(18–615)-QMP: monomeric ACE2 peptidase domain (residues 18–615) fused to the N-terminal end of QMP human albumin (from UniProt Q9BYF1-1;P02768)”: in assay [1], the pKd (as a rule, −log10 of the Kd, conventionally taken in molar units) is 6.97; the koff (commonly the first-order rate constant of dissociation) turned out to be 0.026 s⁻¹; the kon (as a rule, the rate constant with which the complex forms) was found to be 240000 M⁻¹ s⁻¹.

In assay [1], “ACE2(18–615)-WT: monomeric ACE2 peptidase domain (residues 18–615) fused to the N-terminal end of fu (from UniProt Q9BYF1-1;P02768)” had a pKd of 6.49, a koff of 0.0124 s⁻¹ and a kon of 38000 M⁻¹ s⁻¹.

“ACE2(18–740)-WT: truncated dimeric human ACE2 (residues 18–740) fused to the N-terminal end of full- (from UniProt Q9BYF1-1;P02768)” returned a Table S3: IC50 of live virus neutralization (Wuhan SARS-CoV-2 on Vero E6 cells) in assay [2] of 293 nM. In assay [1], this substance had a pKd of 9.05, a koff of 0.00015 s⁻¹ and a kon of 166000 M⁻¹ s⁻¹.

Consider “dimeric ACE2-albumin fusion: truncated human ACE2 (residues 18–740) fused to engineered human albumi (from UniProt Q9BYF1 18-740)”, for which the stoichiometry N (as a rule, the number of molecules, sites or subunits per partner or assembly) in assay [3] worked out at 2.

As to “dimeric ACE2-albumin fusion: truncated human ACE2 (residues 18–740) fused to full-length wild-type human albumin (from UniProt Q9BYF1;P02768)”, the plasma half-life after IV injection in human FcRn Tg32 mice in assay [4] was 26.4 h. The substance also registered a stoichiometry N in assay [5] of 2.

Turning to “soluble His-tagged human neonatal Fc receptor (human FcRn-His) (from UniProt P55899 24-297; P61769 21-119)”, in assay [6], the pKd was 6.99 and the koff was determined as 0.0061 s⁻¹. Moreover, in assay [7], the on-rate (kon) amounted to 60000 M⁻¹ s⁻¹.
